T1: Cynomolgus IL-1β (cynomolgus monkey, UniProt P79182 117-268)
T1 construct: also called cynomolgus monkey IL-1β
T1 sequence (looked up): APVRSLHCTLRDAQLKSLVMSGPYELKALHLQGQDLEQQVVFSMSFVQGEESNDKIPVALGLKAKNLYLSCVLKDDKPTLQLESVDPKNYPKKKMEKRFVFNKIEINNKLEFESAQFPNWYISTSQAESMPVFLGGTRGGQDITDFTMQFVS

T2: Human IL-1α (human, UniProt P01583 113-271)
T2 sequence (looked up): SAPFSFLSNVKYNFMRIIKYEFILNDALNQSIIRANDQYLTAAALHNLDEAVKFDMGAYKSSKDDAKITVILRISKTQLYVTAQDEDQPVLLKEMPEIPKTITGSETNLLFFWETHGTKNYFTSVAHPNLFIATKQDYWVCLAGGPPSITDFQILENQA

T3: Rat IL-1β (rat, UniProt Q63264 117-268)
T3 sequence (looked up): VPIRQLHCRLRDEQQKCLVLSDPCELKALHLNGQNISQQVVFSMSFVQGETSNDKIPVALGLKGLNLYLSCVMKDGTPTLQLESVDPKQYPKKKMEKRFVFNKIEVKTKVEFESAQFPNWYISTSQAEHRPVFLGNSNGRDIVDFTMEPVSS

T4: Mouse IL-1β (mouse, UniProt P10749 118-269)
T4 construct: also called murine IL-1β
T4 sequence (looked up): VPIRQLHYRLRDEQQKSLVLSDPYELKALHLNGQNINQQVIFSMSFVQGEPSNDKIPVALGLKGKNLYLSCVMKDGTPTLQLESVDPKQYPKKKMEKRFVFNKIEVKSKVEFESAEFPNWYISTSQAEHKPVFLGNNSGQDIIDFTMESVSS


What was measured:
recombinant human IL-1β [1] = target: T5, recombinant human IL-1β (human, UniProt P01584 117-269); assay: Biacore competition: AAL160 immobilised on the chip, recombinant human IL-1β (8 nM) injected with increasing concentrations of soluble receptor type I; readout is % binding of IL-1β to AAL160 (competitor: AAL160)
T5 construct: mature; it is entered under this molecule; also called human interleukin 1 beta; huIL-1β

Cynomolgus IL-1β = target: T1, Cynomolgus IL-1β; assay: Biacore; AAL160 immobilised, cytokine at 8 nM (or 20 nM in the case of IL-1β)
Human IL-1α [2] = target: T2, Human IL-1α; assay: as above
Rat IL-1β [3] = target: T3, Rat IL-1β; assay: as above
recombinant human IL-1β [4] = target: T5, recombinant human IL-1β; assay: as above
Human IL-1Ra [5] = target: T6, Human IL-1Ra (human, UniProt P18510 26-177); assay: as above
T6 construct: also called IL-1 receptor antagonist
T6 sequence (P18510 26-177 limits assumed): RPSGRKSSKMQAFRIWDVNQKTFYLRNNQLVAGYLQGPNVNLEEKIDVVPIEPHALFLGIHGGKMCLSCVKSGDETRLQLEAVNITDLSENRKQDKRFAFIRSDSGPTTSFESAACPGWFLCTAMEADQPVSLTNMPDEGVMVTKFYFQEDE

Mouse IL-1β [6] = target: T4, Mouse IL-1β; assay: as above
recombinant human IL-1β [7] = target: T5, recombinant human IL-1β; assay: BIAcore SPR; AAL160 immobilised, recombinant IL-1β 0.5 to 12 nM, 1:1 model, n = 15
Method: Data analysis is performed using the BIAevaluation software.

Human IL-1α [8] = target: T2, Human IL-1α; assay: Biacore, AAL160 immobilised
Rat IL-1β [9] = target: T3, Rat IL-1β; assay: Biacore, AAL160 immobilised
Human IL-1Ra [10] = target: T6, Human IL-1Ra; assay: Biacore, AAL160 immobilised
Mouse IL-1β [11] = target: T4, Mouse IL-1β; assay: Biacore, AAL160 immobilised
recombinant human IL-1β [12] = target: T5, recombinant human IL-1β; assay: cell-based or functional assay

IC50 (recombinant human IL-1β [1]) [nM] | Percent of total binding (Cynomolgus IL-1β) [%] | Percent of total binding (Human IL-1α [2]) [%] | Percent of total binding (Rat IL-1β [3]) [%] | Percent of total binding (recombinant human IL-1β [4]) [%] | Percent of total binding (Human IL-1Ra [5]) [%] | Percent of total binding (Mouse IL-1β [6]) [%] | Kd (recombinant human IL-1β [7]) [nM] | koff (recombinant human IL-1β [7]) [s⁻¹] | kon (recombinant human IL-1β [7]) [M⁻¹ s⁻¹] | IC50, IL-6 secretion, Recombinant (primary human dermal fibroblasts stimulated with recombinant IL-1β) (recombinant human IL-1β [12]) [nM] | IC50, IL-6 secretion, cond. Medium (primary human dermal fibroblasts stimulated with conditioned medium of LPS-stimulated human PBMCs, natural IL-1β) (recombinant human IL-1β [12]) [nM] | IC50, PGE2 production, cond. Medium (primary human dermal fibroblasts stimulated with conditioned medium of LPS-stimulated human PBMCs, natural IL-1β) (recombinant human IL-1β [12]) [nM] | Binder | binding result (Human IL-1α [8]) | binding result (Rat IL-1β [9]) | binding result (Human IL-1Ra [10]) | binding result (Mouse IL-1β [11])
3.4 |  |  |  |  |  |  |  |  |  |  |  |  | recombinant human soluble IL-1 receptor type I (receptor, UniProt P14778 18-332, looked up, soluble; also called soluble IL-1 type I receptor; receptor I) LEADKCKEREEKIILVSSANEIDVRPCPLNPNEHKGTITWYKDDSKTPVSTEQASRIHQHKEKLWFVPAKVEDSGHYYCVVRNSSYCLRIKISAKFVENEPNLCYNAQAIFKQKLPVAGDGGLVCPYMEFFKNENNELPKLQWYKDCKPLLLDNIHFSGVKDRLIVMNVAEKHRGNYTCHASYTYLGKQYPITRVIEFITLEENKPTRPVIVSPANETMEVDLGSQIQLICNVTGQLSDIAYWKWNGSVIDEDDPVLGEDYYSVENPANKRRSTLITVLNISEIESRFYKHPFTCFAKNTHGIDAAYIQLIYPVT |  |  |  | 
 | 96.4 | 0.7 | 3 | 100 | 1.2 | 2.8 | 0.397 | 0.000153 | 391000 | 0.34 | 0.6 | 0.79 | AAL160 antibody (human IgG1/κ monoclonal antibody to human IL-1β) (antibody, V domains shown, It was purified from hybridoma supernatant on protein A; also called NVP AAL 160 NX-1; hybridoma # 476) VH: EVQLVQSGAEVKKPGESLKISCKGSGYSFTSYWIGWVRQMPGKGLEWMGIIYPSDSDTRYSPSFQGQVTISADKSISTAYLQWSSLKASDTAMYYCARYTNWDAFDIWGQGTMVTVSS VL: EIVLTQSPATLSLSPGERATLSCRASQSVSSYLAWYQQKPGQAPRLLIYDASNRATGIPARFSGSGSGTDFTLTISSLEPEDFAVYYCQQRSNWMFPFGQGTKLEIK | no binding (tested: 8 nM (or 20 nM in the case of IL-1β)) | no binding (tested: 8 nM (or 20 nM in the case of IL-1β)) | no binding (tested: 8 nM (or 20 nM in the case of IL-1β)) | no binding (tested: 8 nM (or 20 nM in the case of IL-1β))

From patent US20090232803A1 (Novartis, published 2009)
